Here are results for five molecules from US9730926B2, “Combination therapy using bispecific anti-c-Met/anti-EGFR antibody and c-Src inhibitor” (Samsung Electronics Co., Ltd., priority 2014, dated 2017).

Experiment [1] concerns EGFR T790M mutated non-small cell lung cancer cell line (H1975). As to conditions: FIGS. 17 to 19; for cell proliferation, co-treatment with bispecific antibody compared to c-Src inhibitor alone: c-Src inhibitor 10, 100, 1000 nM + 5 μg/ml ME22S, HGF and EGF 100 ng/ml, 72 hours; for dose dependence of the synergistic effect by co-treatment with bispecific antibody: c-Src inhibitor concentration varied, ME22S 5 μg/ml.
Procedure: (§1) The cells were stored in RPMI1640 medium (GIBCO) containing 10%(v/v) FBS under the conditions of 5% CO2 and 37° C., until being used in the following experiments. A cell proliferation assay was performed as follows.
(§2) In detail, RPMI1640 medium (GIBCO) containing 10% FBS was added to 96-well plate.
(§3) At 72 hours after the treatment, 10 μL of Cell Counting Kit-8 solution (Dojindo Molecular Technologies, Gaithersburg, Md.) was added to each well, and left at room temperature for 2 hours.

Experiment [2] has as its system K-Ras mutated colorectal cancer cell line (HCT-116 cell line). Description: Cell proliferation assay (Cell Counting Kit-8), HCT-116 cell line. The class given is cell-based. As to conditions: for cell proliferation, co-treatment with ME22S compared to c-Src inhibitor alone: dasatinib 10-1000 nM or saracatinib 10-10000 nM + 5 μg/ml ME22S. On the technique in general: Tetrazolium dyes change colour on reduction, which living cells bring about.
Procedure: as §1
RPMI1640 medium (GIBCO) containing 10% FBS was added to 96-well plate.
as §3, §2

Experiment [3] has as its system K-Ras mutated colorectal cancer cell line (Lovo cell line). Put plainly: Cell proliferation assay (Cell Counting Kit-8), Lovo cell line. Format: cell-based. As to conditions: for cell proliferation, co-treatment with ME22S compared to c-Src inhibitor alone: c-Src inhibitor 10, 100, 1000 nM + 5 μg/ml ME22S.
Experiment [4] has the same test system. Described as above. The class given is cell-based. The conditions noted are these: FIG. 4, FIG. 5. As for the experimental part:
To examine the cell proliferation inhibition effect depending on the amount of a bispecific anti-c-Met/anti-EGFR antibody, the experiment was carried out by varying the amount of the treated bispecific anti-c-Met/anti-EGFR antibody with fixing the amount of dasatini as 30 nM.
This experiment was conducted referring to the experiment of the cell proliferation test depending on the amount of the antibody as described above, except the amount of the treated antibody and the c-Src inhibitor.

For experiment [5], the system named is EGFR T790M mutated non-small cell lung cancer cell line (H820 cell line). Put plainly: Cell proliferation assay (Cell Counting Kit-8), H820 cell line. The class given is cell-based. An excerpt:
The H820 cell line was obtained from ATCC. The H820 cells comprise EGFR T790M mutation.

[6] abbreviates: 5 μg/ml alone, HGF and EGF 100 ng/ml, 72 hours.

`COc1cc(Nc2c(C#N)cnc3cc(OCCCN4CCN(C)CC4)c(OC)cc23)c(Cl)cc1Cl` [bosutinib, 4-[(2,4-dichloro-5-methoxyphenyl)amino]-6-methoxy-7-[3-(4-methylpiperazin-1-yl)propoxy]quinoline-3-carbonitrile]: in experiment [1], the “cell proliferation, co-treatment with bispecific antibody compared to c-Src inhibitor alone” value is recorded as “significantly synergistic therapeutic effect” and the “dose dependence of the synergistic effect by co-treatment with bispecific antibody” value is “generally dose-dependent for the c-Src inhibitor”.

For the molecule `CN1CCN(CCOc2cc(OC3CCOCC3)c3c(Nc4c(Cl)ccc5c4OCO5)ncnc3c2)CC1` [saracatinib, 4-Quinazolinamine, N-(5-Chloro-1,3-benzodioxol-4-yl)-7-[2-(4-methyl-1-piperazinyl)ethoxy]-5-[(tetrahydro-2H-pyran-4-yl)oxy]-4-quinazolinamine], the “dose dependence of the synergistic effect by co-treatment with ME22S” value in experiment [2] (c-Src inhibitor concentration varied, ME22S 5 μg/ml, FIG. 14, FIG. 15) is “generally dose-dependent for the c-Src inhibitor”; in experiment [3] (c-Src inhibitor concentration varied, ME22S fixed at 5 μg/ml, FIG. 6, FIG. 7), “generally dose-dependent for the c-Src inhibitor”. The “cell proliferation, co-treatment with ME22S compared to c-Src inhibitor alone” value is “significantly synergistic therapeutic effect” in experiment [2] (72 hours, FIG. 14, FIG. 15) and “more synergistic therapeutic effect” in experiment [3] (72 hours, FIG. 6, FIG. 7). Also, the “cell proliferation, co-treatment with bispecific antibody compared to c-Src inhibitor alone” value in experiment [1] is “significantly synergistic therapeutic effect”. Further, in experiment [1], the “dose dependence of the synergistic effect by co-treatment with bispecific antibody” value is “generally dose-dependent for the c-Src inhibitor”.

Take `Cc1nc(Nc2ncc(C(=O)Nc3c(C)cccc3Cl)s2)cc(N2CCN(CCO)CC2)n1` [dasatinib, N-(2-chloro-6-methylphenyl)-2-[[6-[4-(2-hydroxyethyl)-1-piperazinyl]-2-methyl-4-pyrimidinyl]amino]-5-thiazole carboxamide monohydrate, reference compound]: the “cell proliferation, co-treatment with ME22S compared to c-Src inhibitor alone” value in experiment [2] (72 hours, FIG. 14, FIG. 15) is “significantly synergistic therapeutic effect”; in experiment [3] (72 hours, FIG. 6, FIG. 7), “more synergistic therapeutic effect”.

B1: ME-19: bispecific anti-c-Met/anti-EGFR antibody: anti-EGFR DARPin fused to C-terminus of L3-1Y heavy chain through (G4S)2 linker (antibody)
heavy: EVQLVESGGGLVQPGGSLRLSCAASGFTFTDYYMSWVRQAPGKGLEWLGFIRNKANGYTTEYSASVKGRFTISRDNSKNTLYLQMNSLRAEDTAVYYCARDNWFAYWGQGTLVTVSSASTKGPSVFPLAPCSRSTSESTAALGCLVKDYFPEPVTVSWNSGALTSGVHTFPAVLQSSGLYSLSSVVTVPSSNFGTQTYTCNVDHKPSNTKVDKTVERKCCVECPPCPAPPVAGPSVFLFPPKPKDTLMISRTPEVTCVVVDVSHEDPEVQFNWYVDGVEVHNAKTKPREEQFNSTFRVVSVLTVVHQDWLNGKEYKCKVSNKGLPAPIEKTISKTKGQPREPQVYTLPPSREEMTKNQVSLTCLVKGFYPSDIAVEWESNGQPENNYKTTPPMLDSDGSFFLYSKLTVDKSRWQQGNVFSCSVMHEALHNHYTQKSLSLSPGKGGGGSGGGGSDLGKKLLEAARAGQDDEVRILMANGADVNADDTWGWTPLHLAAYQGHLEIVEVLLKNGADVNAYDYIGWTPLHLAADGHLEIVEVLLKNGADVNASDYIGDTPLHLAAHNGHLEIVEVLLKHGADVNAQDKFGKTAFDISIDNGNEDLAEILQ
light: DIQMTQSPSSLSASVGDRVTITCKSSQSLLASGNQNNYLAWYQQKPGKAPKMLIIWASTRVSGVPSRFSGSGSGTDFTLTISSLQPEDFATYYCQQSYSRPYTFGQGTKVEIKRTVAAPSVFIFPPSDEQLKSGTASVVCLLNNFYPREAKVQWKVDNALQSGNSQESVTEQDSKDSTYSLSSTLTLSKADYEKHKVYACEVTHQGLSSPVTKSFNRGEC
For the molecule B1, the “cell proliferation, co-treatment with dasatinib compared to bispecific antibody alone” value in experiment [4] (ME-19 10, 1, 0.1, 0.01 μg/ml or ME22S 1, 0.1, 0.01 μg/ml + 30 nM dasatinib, 72 hours) is recorded as “more synergistic therapeutic effect”. Also, in experiment [4] (antibody concentration varied, dasatinib fixed at 30 nM), the “dose dependence of the synergistic effect by co-treatment with dasatinib” value was “dose-dependent for the antibody”. For the same molecule, the “cell proliferation, co-treatment with c-Src inhibitor compared to either alone” value in experiment [5] (ME19 0.01, 0.1, 1 or 10 μg/ml + dasatinib 30 nM, 72 hours, FIG. 10) is “more considerable inhibition effect on the cell proliferation”. The “dose dependence of the inhibition effect on cell proliferation” value in experiment [5] (ME19 concentration varied, dasatinib 30 nM, FIG. 10) is “generally dose-dependent for the bispecific anti-c-Met/anti-EGFR antibody”. Further, the “cell proliferation, bispecific antibody + dasatinib compared to co-treatment of dasatinib, L3-1Y and erbitux” value in experiment [2] (5 μg/ml ME19 + 5 nM dasatinib, 72 hours, FIG. 13) is “considerable inhibition effect on cancer cell proliferation”; in experiment [3] (5 μg/ml antibody + 30 nM dasatinib, 72 hours), “considerable inhibition effect on cancer cell proliferation”. Besides, the “cell proliferation, co-treatment with dasatinib compared to each of the drugs” value in experiment [2] (5 μg/ml ME19 + 5 nM dasatinib, HGF and EGF 100 ng/ml, 72 hours, FIG. 13) is on record as “more considerable cell proliferation inhibition effect”. In experiment [3] (5 μg/ml antibody + 30 nM dasatinib, HGF and EGF 100 ng/ml, 72 hours, FIG. 2, FIG. 3), the “cell proliferation, combination with dasatinib compared to the drugs alone” value is recorded as “considerable inhibitory effect on the cell proliferation”.

B2: L3-1Y: anti-c-Met antibody: huAbF46-H4-A1 variable regions, human IgG2 hinge and constant region, human kappa light chain (antibody)
heavy: EVQLVESGGGLVQPGGSLRLSCAASGFTFTDYYMSWVRQAPGKGLEWLGFIRNKANGYTTEYSASVKGRFTISRDNSKNTLYLQMNSLRAEDTAVYYCARDNWFAYWGQGTLVTVSSASTKGPSVFPLAPCSRSTSESTAALGCLVKDYFPEPVTVSWNSGALTSGVHTFPAVLQSSGLYSLSSVVTVPSSNFGTQTYTCNVDHKPSNTKVDKTVERKCCVECPPCPAPPVAGPSVFLFPPKPKDTLMISRTPEVTCVVVDVSHEDPEVQFNWYVDGVEVHNAKTKPREEQFNSTFRVVSVLTVVHQDWLNGKEYKCKVSNKGLPAPIEKTISKTKGQPREPQVYTLPPSREEMTKNQVSLTCLVKGFYPSDIAVEWESNGQPENNYKTTPPMLDSDGSFFLYSKLTVDKSRWQQGNVFSCSVMHEALHNHYTQKSLSLSPGK
light: DIQMTQSPSSLSASVGDRVTITCKSSQSLLASGNQNNYLAWYQQKPGKAPKMLIIWASTRVSGVPSRFSGSGSGTDFTLTISSLQPEDFATYYCQQSYSRPYTFGQGTKVEIKRTVAAPSVFIFPPSDEQLKSGTASVVCLLNNFYPREAKVQWKVDNALQSGNSQESVTEQDSKDSTYSLSSTLTLSKADYEKHKVYACEVTHQGLSSPVTKSFNRGEC
With B2, the “cell proliferation, L3-1Y in combination with erbitux” value is on record as “increased cell proliferation” in experiment [5] (5 μg/ml L3-1Y + 5 μg/ml erbitux, 72 hours); “increased cell proliferation” in experiment [3] (5 μg/ml L3-1Y + 5 μg/ml erbitux, HGF and EGF 100 ng/ml, 72 hours). Further, the “cell proliferation, antibody alone” value in experiment [5] (setting [6]) and in experiment [3] (setting [6]) was “increased cell proliferation” throughout.
